Consider 1 molecule from patent publication US20200179510A1, “LOW DENSITY LIPOPROTEIN RECEPTOR RELATED PROTEIN 5 INHIBITION SUPPRESSES TUMOR FORMATION” (YALE UNIVERSITY, priority 2017, published 2020).

One assay concerns the target T1, LRP6 (Homo sapiens, UniProt O75581).
T1 construct: endogenous in cells; host or cells: HEK293
Nature of the assay: LRP internalization assay, LRP6. To be noted: HEK293 cells, DKK2 4 nM. Type of assay: cell-based. How it is done: (§1) HEK293 cells were treated with mock or recombinant mouse DKK2 protein (4 nM) in culture medium for duration indicated. The cells were washed with pre-cold PBS and cell surface proteins were biotinylated with 0.5 mg/ml of EZ-Link Sulfo-NHS-SS-Biotin (Thermo Fisher, 21445) in a PBS buffer on ice for 30 min. The reaction was stopped by addition of PBS containing ice-cold 50 mM NH4Cl, followed by repeated washes with ice-cold PBS. The cells were then lysed with in a buffer containing 1.25% Triton X-100, 0.25% SDS, 50 mM Tris HCl PH8.0, 150 mM NaCl, 5 mM EDTA, 5 mg/ml iodoacetamide, 10 ug/ml PMSF, and the Roche proteinase inhibitor cocktail. After centrifugation, aliquots were taken as lysate controls, and the rest of supernatants were used in pull-down with NeutrAvidin beads (Thermo Fisher, 29200), followed by analysis by Western blotting.

The test system of assay [1] is tumor infiltrated leukocytes (CD8+ and NK1.1+ cells). Nature of the assay: Flow cytometry of tumor infiltrated leukocytes, MC38 tumors. Type of assay: in vivo, mouse. To be noted: MC38, intratumoral DKK2 protein 600 ng/25 μl/tumor, three times every 8 hours. How it is done:
Tumors were minced using scissors and scalpel blades and incubated with a digestion buffer [RPMI1640, 5% FBS, 1% PS, 25 mM HEPES and 300 U collagenase (Sigma C0130)] in a shaker for 2 h at 37° C. Disperse cells were filtered through a 70 μm cell strainer to eliminate clumps and debris. After centrifugation for 5 minutes (500×g) at 4° C., cell pellets were resuspended in the Red Blood Cell Lysis Buffer (Sigma R7757) and incubated at RT for 5 min to remove erythrocytes. Cells were pelleted again, resuspended and incubated in 0.05% Trypsin/EDTA at 37° C. for 5 min, followed by DNA digestion with the addition of Type I DNase (1 μg/ml final, Sigma D4263) for 5 min. Trypsin digestion was stopped by the addition of FBS to 5%, and cells were filtered again by a 40 μm cell strainer. Finally, the cells were pelleted again and resuspended in PBS at a concentration of […].
Cells in single cell suspension were fixed with 2% PFA (Santa-Cruz sc-281692). After washing with a Flow Cytometry Staining Buffer (eBioscience 00-4222-26), cells were stained with antibodies for cell surface markers for 1 hour on ice in the dark. For staining of intracellular proteins, the cells were washed and resuspended in the Permeabilization Buffer (BD 554723) and stained by antibodies in the Permeabilization Buffer for 1 hour on ice in the dark. […]
On the technique in general: Flow cytometry measures light scatter and fluorescence of single cells or particles in a stream.

In assay [2] the test system is phospho-STAT5 nuclear localization. Nature of the assay: Immunocytostaining of phospho-STAT5 localization in NK cells. Type of assay: cell-based, mouse. How it is done: They were then placed on poly-lysine coated coverslips and incubated for 30 min at room temperature. Cells were fixed with 4% PFA for 10 min at room temperature and permeabilized with ice-cold methanol for 10 min at −20° C. After rinsed with PBS for 3 times, cells were blocked with a blocking buffer (5% normal donkey serum and 0.5% triton in PBS) for 1 hr at room temperature. Primary antibodies were then diluted in PBS with 0.5% BSA and applied to cells with overnight incubation at 4° C. Cells were rinsed with PBS for 3 times and incubated with diluted fluorochrome-conjugated secondary antibodies (in PBS with 1% BSA) for 1 hr at room temperature. Finally, cells were rinsed with PBS for 3 times and mounted with Prolong Gold Antifade solution (Thermo Fisher) for confocal microscopy.

Another assay has as its system human NK cells. Nature of the assay: Human NK cells cultured with IL-15. Type of assay: cell-based. Conditions: human IL-15 50 ng/ml, 10 nM human DKK2, 24 hour. How it is done:
Peripheral blood mononuclear cells from normal humans were purchased from ZenBio (SER-PBMC-200). Human NK cells were isolated from the PBMCs by using the human NK cell isolation kit according to the manufacturer's instruction (Miltenyi Biotec #130-092-657). Human NK cells were cultured in RPMI-1640 (Gibco, 11875-093) supplemented with 10% heat-inactivated FBS, penicillin (100 U/ml), streptomycin (100 μg/ml), 2-mercaptoethanol (500 μM) and HEPES (10 mM) at 37° C. supplemented with 5% CO2 in the presence of recombinant human IL-15 (50 ng/ml) before treatment with recombinant human DKK2 protein.

The target of another assay is T2, LRP5 (Homo sapiens, UniProt O75197).
T2 construct: endogenous in cells; host or cells: HEK293
As to the kind of experiment: LRP internalization assay, LRP5. The format is cell-based. To be noted: HEK293 cells, DKK2 4 nM. How it is done:
as §1

Assay [3] has as its system mouse primary CD8+ T cells. Nature of the assay: Mouse primary CD8+ T cells. Type of assay: cell-based. How it is done:
(§2) Mouse primary NK and CD8+ T cells were isolated from the spleens by using the NK cell and CD8+ T cell isolation kits according to the manufacturer's instructions (Miltenyi Biotec #130-090-864 and #130-104-075), respectively. Primary NK cells were cultured in RPMI-1640 (Gibco, 11875-093) supplemented with 10% FBS, penicillin (100 U/ml), streptomycin (100 μg/ml), 2-mercaptoethanol (500 μM) and HEPES (10 mM) at 37° C. supplemented with 5% CO2 in the presence of recombinant murine IL-15 (50 ng/ml) for 24 hours before treatment with DKK2, CHIR99021, or WNT3A. CD8+ T cells were cultured in the same culture medium and condition as NK cells, but supplemented with IL-15 (200 ng/ml) and IL-15 Rα (1 μg/ml recombinant Mouse IL-15 receptor alpha Fc chimera Protein from R&D) for 96 hours before DKK2 treatment. Mouse primary intraepithelial lymphocytes (IELs) were prepared as described in (Little et al., The Journal of Immunology 175, 6713-6722 (2005) and Li et al. Infect Immun 80, 565-574 (2012)). […]

For assay [4], the system named is CD8+ intraepithelial cells from intestines. Nature of the assay: Mouse primary intraepithelial lymphocytes. Type of assay: cell-based. To be noted: IL-15, 10 nM DKK2, 24 hour. How it is done:
as §2

The subject of a further assay is primary mouse NK cells. Nature of the assay: IL-15-cultured primary mouse NK cells (flow cytometry, Western). The format is cell-based. How it is done: Cells in single cell suspension were fixed with 2% PFA (Santa-Cruz sc-281692). After washing with a Flow Cytometry Staining Buffer (eBioscience 00-4222-26), cells were stained with antibodies for cell surface markers for 1 hour on ice in the dark. For staining of intracellular proteins, the cells were washed and resuspended in the Permeabilization Buffer (BD 554723) and stained by antibodies in the Permeabilization Buffer for 1 hour on ice in the dark. The cells were then pelleted and resuspended in the Flow Cytometry Staining Buffer for flow cytometry analysis.
Mouse primary NK and CD8+ T cells were isolated from the spleens by using the NK cell and CD8+ T cell isolation kits according to the manufacturer's instructions (Miltenyi Biotec #130-090-864 and #130-104-075), respectively. Primary NK cells were cultured in RPMI-1640 (Gibco, 11875-093) supplemented with 10% FBS, penicillin (100 U/ml), streptomycin (100 μg/ml), 2-mercaptoethanol (500 μM) and HEPES (10 mM) at 37° C. supplemented with 5% CO2 in the presence of recombinant murine IL-15 (50 ng/ml) for 24 hours before treatment with DKK2, CHIR99021, or WNT3A. CD8+ T cells were cultured in the same culture medium and condition as NK cells, but supplemented with IL-15 (200 ng/ml) and IL-15 Rα (1 μg/ml recombinant Mouse IL-15 receptor alpha Fc chimera Protein from R&D) for 96 hours before DKK2 treatment. Mouse primary intraepithelial lymphocytes (IELs) were prepared as described in (Little et al., The Journal of Immunology 175, 6713-6722 (2005) and Li et al. Infect Immun 80, 565-574 (2012)). In brief, the small intestine was everted, divided into four pieces, and washed twice in phosphate-buffered saline (PBS) containing 100 U/ml penicillin/streptomycin The specimens were then incubated with stirring at 37° C. in prewarmed Ca2+ and Mg2+-free Hanks' solution containing 100 U/ml penicillin-streptomycin, 5% fetal calf serum (FCS), 2 mM dithiothreitol (DTT), and 5 mM EDTA for 30 min, followed by vigorous shaking for 30 s. The supernatants were passed over two nylon wool columns to remove undigested tissue debris. The lymphocytes obtained were pooled and enriched on a discontinuous (40% and 70%) Percoll density gradient. Cells at the interface between the 40% and […], fractions (IELs) were collected for treatment with IL-15 (200 ng/ml) and DKK2 (200 ng/ml), followed by flow analysis.

Assay [5] relates to Wnt reporter gene TOPFlash. As to the kind of experiment: Wnt reporter gene (TOPFlash) assay in HEK293 cells. Type of assay: cell-based. How it is done: The Stat5 reporter assays were done in HEK293T cells for activated JAK1-induced activity or in those stably expressing JAK3, IL2/15Rβ and the common receptor γ subunit for IL15 induced activity. Cells were seeded at 8×10^4 cells per well in 48 well plate. The next day, cells were transfected by Lipofectamine 2000 (Invitrogen) with the pGL4.52-STAT5-Luciferase (Promega) and tagRFP (internal control) plasmids together with other plasmids expressing genes of interest. The total amount of plasmid was kept at 125 ng per well. The cells were added 24 hours after transfection with IL15/IL15Rα-Fc complex or mock. Six hours later, the cells were lysed and subjected to RFP fluorescence and luciferase luminescence measurement using an Envision Multilabel plate reader. The reporter gene activity is shown after being normalized against RFP readings. The LEF reporter assay was carried out in HEK293 cells that were transfected with the TOPFlash and GFP plasmids. The rest is the same as above. The reporter gene activity is shown after being normalized against GFP readings.
A functional mouse monoclonal anti-DKK2 antibody (5F8) was developed to specifically target and neutralize DKK2, but to not cross react with DKK-1. […]
A general note: Reporter assays use an easily measured gene product as a stand-in for the process of interest.

Assay [6] has as its system primary mouse NK cells with MC38 or YUMM1.7 cells. Nature of the assay: NK and tumor cell co-culture. Type of assay: cell-based. To be noted: NK cells pre-treated with DKK2 8 nM 24 hrs, MC38 7:1. How it is done:
Primary NK cells were isolated from the spleens as described above and cultured in the presence of 50 ng/ml recombinant murine IL-15 for 24 hours. Meanwhile, tumor cells were plated in the 96 well plate for overnight. NK cells were added into the tumor cells at 7:1 radio in the presence of the IgG3 antibody or anti-DKK2 5F8 for 9 hours at 37° C. For testing the effect of DKK2 in co-culture, isolated NK cells were cultured in the presence of 50 ng/ml recombinant murine IL-15 for 24 hours and then cultured in the presence or absence of DKK2 for another 24 hours before the NK cells were added to pre-seeded MC38 cells at 7:1 (NK:MC38) radio. The numbers of live tumor cells were determined by a Guava flow cytometer (EMDmillipore), whereas the cell apoptosis was assessed by flow cytometry using an Annexin V apoptosis detection kit (eBioscience, 88-8007).

T1 sequence (O75581 20-1613): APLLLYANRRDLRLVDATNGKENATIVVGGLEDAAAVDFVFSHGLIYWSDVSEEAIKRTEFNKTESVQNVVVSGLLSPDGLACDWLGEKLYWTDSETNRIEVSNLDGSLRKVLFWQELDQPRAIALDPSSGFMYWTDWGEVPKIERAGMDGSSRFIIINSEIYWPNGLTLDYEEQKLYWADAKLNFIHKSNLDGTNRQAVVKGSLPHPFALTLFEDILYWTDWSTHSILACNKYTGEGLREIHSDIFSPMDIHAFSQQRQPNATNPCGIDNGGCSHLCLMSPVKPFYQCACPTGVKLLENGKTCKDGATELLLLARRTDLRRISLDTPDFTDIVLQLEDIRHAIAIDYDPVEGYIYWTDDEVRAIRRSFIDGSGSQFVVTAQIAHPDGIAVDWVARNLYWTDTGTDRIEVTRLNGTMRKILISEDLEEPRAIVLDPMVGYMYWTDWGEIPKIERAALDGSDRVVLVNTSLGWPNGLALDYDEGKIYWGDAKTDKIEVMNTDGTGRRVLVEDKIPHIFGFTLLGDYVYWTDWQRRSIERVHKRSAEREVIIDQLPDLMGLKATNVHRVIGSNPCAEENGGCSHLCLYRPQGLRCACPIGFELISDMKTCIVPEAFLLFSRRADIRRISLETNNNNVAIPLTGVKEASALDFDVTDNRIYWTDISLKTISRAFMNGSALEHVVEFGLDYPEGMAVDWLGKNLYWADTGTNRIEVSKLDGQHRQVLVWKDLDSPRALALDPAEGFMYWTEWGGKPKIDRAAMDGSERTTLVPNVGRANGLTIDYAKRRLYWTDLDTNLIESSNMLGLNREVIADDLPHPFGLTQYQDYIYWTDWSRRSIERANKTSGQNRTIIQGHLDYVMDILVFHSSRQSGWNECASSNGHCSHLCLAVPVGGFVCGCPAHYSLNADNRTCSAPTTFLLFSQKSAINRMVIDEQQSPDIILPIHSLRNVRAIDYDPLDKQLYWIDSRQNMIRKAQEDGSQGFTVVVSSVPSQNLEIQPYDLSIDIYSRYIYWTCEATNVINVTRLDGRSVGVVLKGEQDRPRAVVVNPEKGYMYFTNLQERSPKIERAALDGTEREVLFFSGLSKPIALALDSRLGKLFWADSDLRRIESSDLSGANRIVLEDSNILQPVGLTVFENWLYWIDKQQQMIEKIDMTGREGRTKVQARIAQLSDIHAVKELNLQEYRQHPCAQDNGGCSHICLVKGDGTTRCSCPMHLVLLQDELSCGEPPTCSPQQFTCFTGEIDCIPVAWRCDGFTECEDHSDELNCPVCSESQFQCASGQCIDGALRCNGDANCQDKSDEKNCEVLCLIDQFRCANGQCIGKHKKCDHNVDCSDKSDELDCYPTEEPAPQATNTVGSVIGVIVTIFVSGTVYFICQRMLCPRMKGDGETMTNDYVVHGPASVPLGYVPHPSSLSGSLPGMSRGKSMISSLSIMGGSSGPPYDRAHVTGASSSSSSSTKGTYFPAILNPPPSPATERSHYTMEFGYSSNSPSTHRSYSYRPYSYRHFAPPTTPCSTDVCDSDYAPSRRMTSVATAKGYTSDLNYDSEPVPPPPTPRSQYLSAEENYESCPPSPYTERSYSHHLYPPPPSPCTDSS
T2 sequence (O75197 32-1615): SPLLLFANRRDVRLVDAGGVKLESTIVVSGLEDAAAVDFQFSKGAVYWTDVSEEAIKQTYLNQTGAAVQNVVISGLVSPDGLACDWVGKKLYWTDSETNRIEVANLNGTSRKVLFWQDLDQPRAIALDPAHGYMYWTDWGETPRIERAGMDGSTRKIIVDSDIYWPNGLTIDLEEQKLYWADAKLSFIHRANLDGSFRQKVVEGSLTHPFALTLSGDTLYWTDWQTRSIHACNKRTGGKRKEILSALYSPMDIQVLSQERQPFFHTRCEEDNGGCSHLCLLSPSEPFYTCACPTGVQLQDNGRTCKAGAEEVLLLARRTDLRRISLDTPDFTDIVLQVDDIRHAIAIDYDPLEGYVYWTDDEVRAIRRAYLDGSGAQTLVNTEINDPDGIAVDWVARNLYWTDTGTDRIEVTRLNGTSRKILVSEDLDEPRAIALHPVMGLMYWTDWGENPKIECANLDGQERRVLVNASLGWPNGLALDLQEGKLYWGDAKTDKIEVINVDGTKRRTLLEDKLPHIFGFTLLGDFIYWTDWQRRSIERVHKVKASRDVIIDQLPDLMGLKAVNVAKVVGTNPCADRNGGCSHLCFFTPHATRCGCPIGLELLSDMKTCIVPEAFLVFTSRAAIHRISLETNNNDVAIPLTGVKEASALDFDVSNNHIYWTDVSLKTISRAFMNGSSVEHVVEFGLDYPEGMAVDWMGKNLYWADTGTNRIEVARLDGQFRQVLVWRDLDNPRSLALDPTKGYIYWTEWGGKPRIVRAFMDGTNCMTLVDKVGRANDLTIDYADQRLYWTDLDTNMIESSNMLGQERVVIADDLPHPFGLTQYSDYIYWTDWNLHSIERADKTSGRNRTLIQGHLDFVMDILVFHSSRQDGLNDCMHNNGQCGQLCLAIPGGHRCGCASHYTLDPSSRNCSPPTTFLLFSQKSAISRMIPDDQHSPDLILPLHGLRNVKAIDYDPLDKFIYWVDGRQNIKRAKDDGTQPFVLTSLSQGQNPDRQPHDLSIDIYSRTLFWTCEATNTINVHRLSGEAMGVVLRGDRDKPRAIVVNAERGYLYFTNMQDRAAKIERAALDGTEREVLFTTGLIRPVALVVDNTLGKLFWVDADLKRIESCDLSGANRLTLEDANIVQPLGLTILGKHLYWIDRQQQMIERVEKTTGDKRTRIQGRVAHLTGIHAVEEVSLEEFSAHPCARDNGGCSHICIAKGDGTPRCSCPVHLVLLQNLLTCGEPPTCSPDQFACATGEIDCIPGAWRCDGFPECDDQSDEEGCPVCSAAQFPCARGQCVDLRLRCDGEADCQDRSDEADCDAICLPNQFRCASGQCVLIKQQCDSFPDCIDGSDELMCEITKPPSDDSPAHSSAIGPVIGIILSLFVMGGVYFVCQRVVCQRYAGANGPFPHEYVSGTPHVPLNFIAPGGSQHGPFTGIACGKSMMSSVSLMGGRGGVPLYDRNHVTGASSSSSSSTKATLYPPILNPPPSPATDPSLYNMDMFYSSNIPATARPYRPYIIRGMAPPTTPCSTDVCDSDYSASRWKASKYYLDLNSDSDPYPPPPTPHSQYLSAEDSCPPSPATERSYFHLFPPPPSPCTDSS

B1: DKK2: Recombinant Dickkopf 2 protein (mouse; human for human NK cells), also used as conditioned medium (protein)
chain: KLNSIKSSLGGETPAQSANRSAGMNQGLAFGGSKKGKSLGQAYPCSSDKECEVGRYCHSPHQGSSACMLCRRKKKRCHRDGMCCPGTRCNNGICIPVTESILTPHIPALDGTRHRDRNHGHYSNHDLGWQNLGRPHSKMPHIKGHEGDPCLRSSDCIDGFCCARHFWTKICKPVLHQGEVCTKQRKKGSHGLEIFQRCDCAKGLSCKVWKDATYSSKARLHVCQKI
As to B1, in the assay with LRP6, the “internalization of LRP6” value was “not LRP6”. In addition, the “tumor immune responses elicited by PD-1 blockade” value in assay [1] was “inhibited PD-1 blockade-induced increases in the numbers of tumor-infiltrated CD45+ and CD8+ cells and activation of CD8+ and NK cells”. Besides, the “co-localization of phospho-STAT5 with EEA1” value in [2] (DKK2-treated NK cells) is given as “partially co-localized with early endosome marker”. Also, in [2] (IL-15, DKK2-treated primary NK cells), the “localization of phospho-STAT5 in NK cells” value is recorded as “cytosolic localization of phospho-STAT5 was readily detected”. In addition, the “phospho-STAT5 nuclear localization in NK cells lacking LRP5” value in assay [2] (LRP5-/- NK cells) is on record as “failed to cause impairment of phospho-STAT5 nuclear localization”. In addition, the “granzyme B expression in human NK cells” value in the assay on human NK cells is reported as “inhibit granzyme B expression in human NK cells”. The “internalization of LRP5” value in the assay with LRP5 is on record as “induces internalization of LRP5”. The “T cell receptor-mediated activation of primary T cells” value in assay [3] is reported as “does not inhibit T cell receptor-mediated activation”. In assay [3] (IL-15+IL15Rα-Fc 4 days, DKK2 10 nM 24 hours), the “IL-15-mediated activation of mouse primary CD8+ T cells” value is on record as “directly suppresses mouse primary CD8+”. The “activation of CD8+ intraepithelial cells” value in assay [4] is recorded as “directly suppresses”. In addition, in the assay with primary mouse NK cells (DKK2-treated samples), the “granzyme B (Western)” value was “reduced granzyme B” and the “perforin (Western)” value is on record as “reduced perforin”. Further, the “phosphorylated STAT5, ERK and AKT stimulated by IL-15” value in the assay on primary mouse NK cells (DKK2 treatment, Western) was “No notable changes in phosphorylated STAT5, ERK, and AKT”. In addition, in the assay on primary mouse NK cells (FIG. 4F), the “dose dependence of inhibition of NK cell activation” value is listed as “dose-dependent”. Further, the “granzyme B and NK activation markers” value with primary mouse NK cells (IL-15 50 ng/ml 24 hrs, then DKK2 8 nM 24 hours) is “significant reductions in granzyme B as well as a number of other NK activation markers, including CD69, IFNY, CD107a, and CD314”. Moreover, the “activation of LRP5-deficient NK cells” value with primary mouse NK cells (LRP5-/- NK cells) was “failed to inhibit”. Further, the “activation of primary NK cells lacking LRP6” value in the assay with primary mouse NK cells (Lrp6-/- NK cells) is recorded as “could still inhibit the activation”. Moreover, in [5] (DKK2 5 nM, Wnt3a 2 nM, CHIR 1 μM, 6 hrs (FIG. 10D)), the “Wnt reporter gene activity” value was “inhibited”. Further, the Wnt reporter activity entry in assay [5] (HEK293, TOPFlash, conditioned medium (FIG. 1E)) is “inhibited Wnt signaling”. For the same molecule, in assay [6], the “ability of pre-treated NK cells to cause tumor cell apoptosis and death” value was “reduced ability to cause tumor cell apoptosis and death”.
